In this test the target is murine dimeric IgA (mouse) (UniProt P01592). The experiment in a line: cell-based or functional assay.
Chain of UniProt P01592 (P01592 22-159): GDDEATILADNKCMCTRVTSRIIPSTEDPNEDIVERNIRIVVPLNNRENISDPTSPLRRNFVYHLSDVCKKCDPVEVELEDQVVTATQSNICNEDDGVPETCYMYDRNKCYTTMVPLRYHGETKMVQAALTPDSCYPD

“murine polymeric immunoglobulin receptor (from UniProt O70570 19-771)” showed a total IgA concentration in milk by ELISA, transgenic line 3644 (270-fold increased SC); control mean 292 mg/ml of 593 and a total IgA level in milk by ELISA, transgenic line 3646 (60-fold elevated SC) against control mice of 1.5 times.
